# Assay results: article PMC9684487, “Human antibody recognition and neutralization mode on the NTD and RBD domains of SARS-CoV-2 spike protein” (Scientific Reports, 2022)
# Columns and labels:
# Details in all cases: both partners purified
# [1] = biological target: T1, SARS-CoV-2 S protein (ECD, His and Flag Tag) (GenScript) (SARS-CoV-2, wild type (Wuhan-Hu-1 …, UniProt P0DTC2)); assay: SPR
# T1 construct: source: bought: GenScript
# [2] = biological target: NTD + RBD (aa 13–541) of the SARS-CoV-2 S protein (SARS-CoV-2, wild type (Wuhan-Hu-1 …, UniProt P0DTC2)); assay: ELISA
# [3] = biological target: T2, S1 (aa 13–685) of the SARS-CoV-2 S protein (SARS-CoV-2, wild type (Wuhan-Hu-1 …, UniProt P0DTC2)); assay: ELISA
# T2 construct: also called subunit 1
# [4] = biological target: T3, recombinant S ECD protein (aa 13–1208) of SARS-CoV-2 (SARS-CoV-2, UniProt P0DTC2); assay: ELISA
# T3 construct: also called S protein; extracellular domain of the S protein
Binder,Kd [1] [nM],koff [1] [s⁻¹],kon [1] [M⁻¹ s⁻¹],binding result [2],binding result [3],binding result [4]
"NIBIC-71 (antibody, V domains shown, also called recombinant mAb NIBIC-71) VH: EVQLVESGGGLIQPGGSLRLSCEASGLIVSSNYMTWVRQAPGKGLEWVSVIYSGGSTFYADSVKGRFTVSRDNSKNTLYLQMNNLSPEDTAVYYCARDLGPYGVDVWGQGTTVTVSS VL: AIQLTQSPSSLSASVGDRVTITCRASQGISSYLAWYQQTPGKAPKLLIYAASTLQSGVPSRFSGSGSGTDFTLTISSLQPEDFATYYCQQLNSYPPFTFGPGTKVDIK",1.33,6.35e-05,47700,–,–,–
"7G7/κ (antibody, V domains shown, also called 7G7-IgG1κ; 7G7/κ (IgG1/Igκ); source: Expi293F, cotransfected with IgH and IgL vectors, purified (HiTrap Protein G)) VH: QVQLVESGGGVVQPGRSLRLSCIASGFTFRNYAMYWVRQAPGKGLEWVAVIWYDGSNKFYTDSVKGRFTISRDNSKNSLYLQMNSLRAEDTAVYFCARDQGFGDNYYYYGMDVWGQGTTVTVSS VL: SYELTQPPSVSVSPGQTARISCSGDALPKEYAYWYQQKPGQAPVLVIYKDSERPSGIPERFSGSSSGTTVTLTISGVQAEDEADYYCQLADSSMHYVVFGGGTKLTVL",–,–,–,binds,binds,binds
"7G7/λ (antibody, V domains shown, also called 7G7 (7G7/λ); IgG1/Igλ2; source: Expi293F, cotransfected with IgH and IgL vectors, purified (HiTrap Protein G)) VH: QVQLVESGGGVVQPGRSLRLSCIASGFTFRNYAMYWVRQAPGKGLEWVAVIWYDGSNKFYTDSVKGRFTISRDNSKNSLYLQMNSLRAEDTAVYFCARDQGFGDNYYYYGMDVWGQGTTVTVSS VL: SYELTQPPSVSVSPGQTARISCSGDALPKEYAYWYQQKPGQAPVLVIYKDSERPSGIPERFSGSSSGTTVTLTISGVQAEDEADYYCQLADSSMHYVVFGGGTKLTVL",–,–,–,–,–,binds
